Measured values as given in patent US20250236663A1.

Legend:
[1] = target: Recombinant human FAM19A5 protein (His-tagged) (human) (UniProt Q7Z5A7); assay: ELISA, N'-Term His; R² 0.9422
[2] = target: Recombinant human FAM19A5 protein (His-tagged) (human) (UniProt Q7Z5A7); assay: ELISA, N'-Term His; parameters: unit not given here
[3] = target: Recombinant human FAM19A5 protein (His-tagged) (human) (UniProt Q7Z5A7); assay: ELISA on coated His-tagged FAM19A5 (positive control); the bar ends at the top of the axis
[4] = target: FAM19A5 epitope fragment F3 (BSA-conjugated) (human); assay: ELISA on the coated BSA-conjugated fragment
[5] = target: FAM19A5 epitope fragment F6 (BSA-conjugated) (human); assay: ELISA on the coated BSA-conjugated fragment
[6] = target: FAM19A5 epitope fragment F4 (BSA-conjugated) (human); assay: ELISA on the coated BSA-conjugated fragment
[7] = target: FAM19A5 epitope fragment F2 (BSA-conjugated) (human); assay: ELISA on the coated BSA-conjugated fragment
[8] = target: FAM19A5 epitope fragment F1 (BSA-conjugated) (human); assay: ELISA on the coated BSA-conjugated fragment

Kd [1]: 7.64 nM | Bmax [2]: 1.73 | O.D (492nm) [3]: 4 | O.D (492nm) [4]: 0.224 | O.D (492nm) [5]: 0.139 | O.D (492nm) [6]: 0.162 | O.D (492nm) [7]: 0.394 | O.D (492nm) [8]: 0.139
B1: Anti-FAM19A5 (P2-C12) (antibody, V domains shown)
VH: QSLEESGGRLVTPGTPLTLTCTVSGFSLSTYAVTWVRQAPGKGLEWIGYINWRGGTSYANWAKGRFTISKTSSTTVDLKMTSPTTEDTATYFCARDASSGAAFGSYGMDPWGPGTLVTVSS
VL: ELDMTQTPSSVSAAVGGTVTIKCQASQSISSYLSWYQQKPGQPPKLLIYEASKLASGVPSRFSGSGYGTEFTLTISDLECADAATYYCQQGYSSTNVWNAFGGGTNVEIK
